This passage reports pKa results from PMC9780748.

Holding throughout (assay): potentiometry
Data set [1] addresses Glu303 (UniProt position 303, …). The note with it: 298 K; 0.1 M NaClO4; none (HClO4/KOH); free peptide (0.5 mM), no metal.
Data set [2] deals with Cterm310 (UniProt position 310, GQLHCT-----). Particulars: 298 K; 0.1 M NaClO4; none (HClO4/KOH); free peptide (0.5 mM), no metal.
The target of data set [3] is Arg187 (UniProt position 187, …). Particulars: 298 K; 0.04 M sodium dodecyl sulfate (no other salt stated); none (HClO4/KOH); free peptide (0.5 mM) in SDS, no metal.
Data set [4] concerns the target Tyr189 (UniProt position 189, …). Particulars: 298 K, 0.04 M sodium dodecyl sulfate (no other salt stated), none (HClO4/KOH).
The target of data set [5] is Lys79 (UniProt position 79, …). Particulars: 298 K, 0.1 M NaClO4, none (HClO4/KOH).
In data set [6] the target is Arg76 (UniProt position 76, …). Particulars: 298 K, 0.1 M NaClO4, none (HClO4/KOH).
Where [7] appears, read: free peptide (0.5 mM) in SDS, no metal.
Setting [8] is: Ni(II) complex, metal:peptide 1:1, 0.5 mM peptide.
The mark [9] stands for this setting: Zn(II) complex, metal:peptide 1:1, 0.5 mM peptide.
The mark [10] stands for this setting: free peptide (0.5 mM), no metal.

The term pKa denotes the pH at which an ionisable group is half protonated.

As for PNCHTHEGGQLHCT [Aspf2 (Asp f 2 zincophore) C-terminal fragment 297-310, Ac-PNCHTHEGGQLHCT (Aspergillus fumigatus)], the pKa is on record as 4.24 in data set [1] and 3.08 in data set [2].

As to MHRLYHVP [Aspf2 (Asp f 2 zincophore) fragment 185-192, Ac-MHRLYHVP-NH2 (Aspergillus fumigatus)], the pKa in data set [3] turned out to be 11.21; in data set [4] (setting [7]), 9.56.

Take MHRLYHVPAVGQGWVDHFAD [Aspf2 (Asp f 2 zincophore) fragment 185-204, Ac-MHRLYHVPAVGQGWVDHFAD-NH2 (Aspergillus fumigatus)]: the pKa in data set [3] was determined as 11.24; in data set [4] (Zn(II) complex, metal:peptide 1:1, 0.5 mM peptide, in SDS), 9.56; in data set [4] (setting [7]), 10.12.

Regarding ARHAKAH [Aspf2 (Asp f 2 zincophore) fragment 75-81, Ac-ARHAKAH-NH2 (Aspergillus fumigatus)], the pKa in data set [5] (setting [8]) was 9.87; in data set [5] (setting [9]) it was 9.75; in data set [5] (setting [10]), 9.79; in data set [6] (setting [8]), 11.38; in data set [6] (setting [9]), 11.79; in data set [6] (setting [10]) it was 11.14.
